Data published in the Immune Epitope Database (IEDB).

How the values were obtained:
HLA-A*02:01 [1] = assay: IEDB peptide-MHC binding, purified MHC/competitive/fluorescence; filed as Kd, often an IC50 or EC50 that approximates it; ≥ and ≤ were set here for values at or beyond the usual limits of such assays
HLA-A*02:06 [2] = assay: as above
HLA-A*69:01 = assay: as above
HLA-A*02:16 = assay: as above
HLA-A*02:11 = assay: as above
HLA-A*02:19 = assay: as above
HLA-A*02:12 = assay: as above
HLA-A*02:03 [3] = assay: as above
HLA-B*83:01 = assay: as above
HLA-A*32:15 = assay: as above; details: source organism: West Nile virus
HLA-B*45:06 = assay: as above
HLA-A*68:23 = assay: as above; details: source organism: West Nile virus
HLA-B*15:42 = assay: as above
HLA-A*32:07 = assay: as above; details: source organism: West Nile virus
HLA-C*12:03 = assay: IEDB peptide-MHC binding, purified MHC/direct/fluorescence; filed as Kd, often an IC50 or EC50 that approximates it; ≥ and ≤ were set here for values at or beyond the usual limits of such assays
HLA-C*03:03 = assay: as above
HLA-C*05:01 = assay: as above
HLA-B*51:01 = assay: IEDB peptide-MHC binding, purified MHC/competitive/fluorescence; filed as Kd, often an IC50 or EC50 that approximates it; ≥ and ≤ were set here for values at or beyond the usual limits of such assays
HLA-B*35:01 = assay: as above
HLA-B*39:01 = assay: as above
HLA-A*02:17 = assay: IEDB peptide-MHC binding, purified MHC/competitive/radioactivity; filed as Kd, often an IC50 or EC50 that approximates it; ≥ and ≤ were set here for values at or beyond the usual limits of such assays
HLA-A*02:01 [4] = assay: as above
HLA-A*02:03 [5] = assay: as above
HLA-C*15:02 = assay: IEDB peptide-MHC binding, purified MHC/direct/fluorescence; filed as Kd, often an IC50 or EC50 that approximates it; ≥ and ≤ were set here for values at or beyond the usual limits of such assays
HLA-A*29:02 = assay: IEDB peptide-MHC binding, purified MHC/competitive/fluorescence; filed as Kd, often an IC50 or EC50 that approximates it; ≥ and ≤ were set here for values at or beyond the usual limits of such assays
HLA-A*03:01 = assay: as above; details: source organism: Salmonella enterica subsp. enterica serovar Typhi
HLA-A*26:01 = assay: as above
HLA-A*24:03 = assay: as above
HLA-A*68:02 = assay: as above
HLA-B*27:03 = assay: as above; details: source organism: Entamoeba histolytica HM-1:IMSS
HLA-A*02:06 [6] = assay: IEDB peptide-MHC binding, purified MHC/competitive/radioactivity; filed as Kd, often an IC50 or EC50 that approximates it; ≥ and ≤ were set here for values at or beyond the usual limits of such assays
HLA-B*08:01 = assay: as above; details: source organism: Dengue virus 1 Brazil/97-11/1997
HLA-B*07:02 = assay: IEDB peptide-MHC binding, purified MHC/direct/fluorescence; filed as Kd, often an IC50 or EC50 that approximates it; ≥ and ≤ were set here for values at or beyond the usual limits of such assays; details: source organism: Mammarenavirus juninense
HLA-B*54:01 = assay: IEDB peptide-MHC binding, purified MHC/competitive/radioactivity; filed as Kd, often an IC50 or EC50 that approximates it; ≥ and ≤ were set here for values at or beyond the usual limits of such assays; details: source organism: Mammarenavirus juninense
HLA-B*53:01 = assay: as above; details: source organism: Mammarenavirus juninense
HLA-B*15:01 = assay: IEDB peptide-MHC binding, purified MHC/competitive/fluorescence; filed as Kd, often an IC50 or EC50 that approximates it; ≥ and ≤ were set here for values at or beyond the usual limits of such assays; details: source organism: Escherichia coli 536
HLA-B*18:01 = assay: as above; details: source organism: Escherichia coli 536
HLA-A*31:01 = assay: as above; details: source organism: Escherichia coli 536
HLA-B*46:01 = assay: as above; details: source organism: Escherichia coli 536
HLA-B*57:01 = assay: as above; details: source organism: Escherichia coli 536
[7] = source organism: Human immunodeficiency virus 1
[8] = source organism: West Nile virus
[9] = source organism: Yersinia pestis Nepal516
[10] = source organism: Dengue virus 4 Philippines/H241/1956
[11] = source organism: Bacillus anthracis str. A0488
[12] = source organism: Salmonella enterica subsp. enterica serovar Typhi str. CT18
[13] = source organism: Salmonella enterica subsp. enterica serovar Typhi
[14] = source organism: Entamoeba histolytica HM-1:IMSS
[15] = source organism: Dengue virus 2 Jamaica/1409/1983
[16] = source organism: Dengue virus 3 China/80-2/1980
[17] = source organism: Dengue virus 1 Singapore/S275/1990
[18] = source organism: Dengue virus 1 Brazil/97-11/1997
[19] = source organism: Mammarenavirus juninense
[20] = source organism: Human herpesvirus 5 strain Towne
[21] = source organism: Escherichia coli 536

DLADQLIHL
Kd (HLA-A*02:01 [1]; [7]): 178 nM | Kd (HLA-A*02:06 [2]; [7]): 59 nM | Kd (HLA-A*69:01; [7]): 19.8 nM | Kd (HLA-A*02:16; [7]): 55.5 nM | Kd (HLA-A*02:11; [7]): 33 nM | Kd (HLA-A*02:19; [7]): 42.5 nM | Kd (HLA-A*02:12; [7]): 476 nM | Kd (HLA-A*02:03 [3]; [7]): 136 nM

ETTNWLWTF
Kd (HLA-B*83:01; [8]): ≥ 5000 nM | Kd (HLA-A*32:15): 18.5 nM | Kd (HLA-B*45:06; [8]): ≥ 5000 nM | Kd (HLA-A*68:23): 2.2 nM | Kd (HLA-B*15:42; [8]): ≥ 5000 nM | Kd (HLA-A*32:07): 1.7 nM

FASASSYAI
Kd (HLA-C*12:03; [9]): 105 nM | Kd (HLA-C*03:03; [9]): ≤ 1 nM | Kd (HLA-C*05:01; [9]): 866 nM | Kd (HLA-B*51:01; [9]): 3780 nM | Kd (HLA-B*35:01; [9]): 0.4 nM | Kd (HLA-B*39:01; [9]): 7.4 nM

FMTATPPGA
Kd (HLA-A*02:17; [10]): 6440 nM | Kd (HLA-A*02:01 [4]; [10]): 49 nM | Kd (HLA-A*02:03 [5]; [10]): 152 nM

FVFGIPLLV
Kd (HLA-C*15:02; [11]): 41 nM | Kd (HLA-C*12:03; [11]): ≤ 1 nM | Kd (HLA-A*29:02; [11]): 0.2 nM

FVVDTTPPL
Kd (HLA-C*12:03; [12]): 372 nM | Kd (HLA-C*03:03; [12]): 2 nM | Kd (HLA-C*05:01; [12]): 1100 nM | Kd (HLA-A*02:01 [1]; [13]): 0.2 nM | Kd (HLA-B*83:01; [13]): ≥ 5000 nM | Kd (HLA-B*45:06; [13]): ≥ 5000 nM | Kd (HLA-B*15:42; [13]): ≥ 5000 nM | Kd (HLA-B*35:01; [13]): ≤ 0.1 nM | Kd (HLA-B*39:01; [13]): 7 nM

HVCYFSHPY
Kd (HLA-A*03:01): ≥ 20000 nM | Kd (HLA-B*35:01; [13]): 0.7 nM

KLSMGLIAI
Kd (HLA-A*02:17; [10]): 2480 nM | Kd (HLA-A*02:01 [4]; [10]): 12.4 nM | Kd (HLA-A*02:03 [5]; [10]): 31.4 nM

KTFEWGVFY
Kd (HLA-A*26:01; [14]): ≥ 20000 nM | Kd (HLA-A*24:03; [14]): ≥ 20000 nM | Kd (HLA-A*68:02; [14]): ≥ 20000 nM | Kd (HLA-A*29:02; [14]): 0.5 nM | Kd (HLA-A*69:01; [14]): ≥ 20000 nM | Kd (HLA-A*02:16; [14]): ≥ 20000 nM | Kd (HLA-B*27:03): ≥ 20000 nM | Kd (HLA-A*02:19; [14]): ≥ 20000 nM | Kd (HLA-A*02:12; [14]): ≥ 20000 nM | Kd (HLA-A*02:03 [3]; [14]): ≥ 20000 nM | Kd (HLA-B*39:01; [14]): ≥ 20000 nM

KTIPVAMTL
Kd (HLA-C*15:02; source organism: Salmonella enterica subsp. enterica serovar Typhimurium str. LT2): 15 nM

LIFILLTAV
Kd (HLA-A*02:17; [15]): 3590 nM | Kd (HLA-A*02:01 [4]; [15]): 74.4 nM | Kd (HLA-A*02:06 [6]; [15]): 497 nM | Kd (HLA-A*02:03 [5]; [15]): 56.2 nM

LLLGLMILL
Kd (HLA-A*02:17; [16]): 110 nM | Kd (HLA-A*02:01 [4]; [16]): 13.6 nM

LLMRTTWAL
Kd (HLA-A*02:17; [17]): 4.89 nM | Kd (HLA-A*02:01 [4]; [17]): 21.4 nM | Kd (HLA-A*02:06 [6]; [18]): 1.43 nM | Kd (HLA-B*08:01): 20.7 nM | Kd (HLA-A*02:03 [5]; [18]): 0.817 nM

LPTTITVPV
Kd (HLA-B*07:02): 824 nM | Kd (HLA-B*54:01): 9 nM | Kd (HLA-B*53:01): 127 nM | Kd (HLA-B*51:01; [19]): 700 nM | Kd (HLA-B*35:01; [19]): ≤ 0.1 nM

NLVPMVATV
Kd (HLA-A*02:06 [2]; [20]): ≤ 0.1 nM | Kd (HLA-A*69:01; [20]): 75 nM | Kd (HLA-A*02:16; [20]): 0.543 nM | Kd (HLA-A*02:11; [20]): ≤ 0.1 nM | Kd (HLA-A*02:19; [20]): 0.6 nM | Kd (HLA-A*02:12; [20]): 1.55 nM

RVGIYFGMK
Kd (HLA-A*26:01; [21]): ≥ 20000 nM | Kd (HLA-B*15:01): ≥ 20000 nM | Kd (HLA-B*18:01): ≥ 20000 nM | Kd (HLA-A*24:03; [21]): ≥ 20000 nM | Kd (HLA-B*51:01; [21]): ≥ 20000 nM | Kd (HLA-A*02:01 [1]; [21]): ≥ 20000 nM | Kd (HLA-A*68:02; [21]): ≥ 20000 nM | Kd (HLA-A*31:01): 45.6 nM | Kd (HLA-A*69:01; [21]): ≥ 20000 nM | Kd (HLA-B*46:01): ≥ 20000 nM | Kd (HLA-A*02:16; [21]): ≥ 20000 nM | Kd (HLA-A*02:11; [21]): ≥ 20000 nM | Kd (HLA-B*57:01): ≥ 20000 nM | Kd (HLA-A*02:19; [21]): ≥ 20000 nM | Kd (HLA-A*02:12; [21]): ≥ 20000 nM | Kd (HLA-A*02:03 [3]; [21]): ≥ 20000 nM | Kd (HLA-B*39:01; [21]): ≥ 20000 nM

TLLLLTLLAT
Kd (HLA-A*02:17; [15]): 1320 nM | Kd (HLA-A*02:01 [4]; [15]): 141 nM

VTNRHEEKF
Kd (HLA-C*15:02; source organism: human gammaherpesvirus 4): 4270 nM

YMPTVIEEL
Kd (HLA-A*02:17; [10]): 5.23 nM | Kd (HLA-A*02:01 [4]; [10]): 39.6 nM | Kd (HLA-A*02:06 [6]; [10]): 46.9 nM | Kd (HLA-A*02:03 [5]; [10]): 91.9 nM
